{
  "source": "patent US20050249746A1",
  "key": {"[1]": {"biological_target": "wild-type recombinant lipoprotein P4 (rLP4) of non-typable Haemophilus influenzae (non-typable Haemophilus influenzae) (UniProt P26093)", "experiment": "ELISA on coated wild-type rLP4; preimmune serum pool"}, "[2]": {"biological_target": "wild-type recombinant lipoprotein P4 (rLP4) of non-typable Haemophilus influenzae (non-typable Haemophilus influenzae) (UniProt P26093)", "experiment": "ELISA on coated wild-type rLP4; week 0 serum"}},
  "note": "Several values for one entry are separate records, joined by “and”; a condition that tells them apart may be missing. Equal values may be shown once.",
  "data": [
    {"substance": "pre-immune mouse serum (antibody)", "values": [
      {"measurement": "ELISA titer", "setting": "[1]", "result": "82 titer and 65 titer"},
      {"measurement": "Anti-rP4 ELISA titer", "setting": "[2]", "result": "53 titer and 62 titer"},
      {"measurement": "ELISA titer", "setting": "[2]", "result": 53, "unit": "titer"}
    ]}
  ]
}
